The results in this text go back to PMC4338524 (Nature communications, 2014).

Data set [1] addresses T1, E. coli MinD, full-length, untagged (E. coli, UniProt P0AEZ3 1-270).
T1 sequence: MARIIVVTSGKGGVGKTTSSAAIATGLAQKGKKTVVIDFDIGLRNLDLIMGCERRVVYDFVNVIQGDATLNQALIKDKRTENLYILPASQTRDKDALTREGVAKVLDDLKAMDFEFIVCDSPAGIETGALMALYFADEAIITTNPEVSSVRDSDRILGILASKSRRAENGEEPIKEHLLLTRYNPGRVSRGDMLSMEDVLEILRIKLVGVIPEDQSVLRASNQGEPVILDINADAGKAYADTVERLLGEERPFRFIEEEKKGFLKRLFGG
The experiment in a line: 90° angle light scattering.

The target of data set [2] is T2, E. coli MinCD copolymeric filaments (pre-formed) (E. coli, UniProt P18196;P0AEZ3).
T2 sequence 1: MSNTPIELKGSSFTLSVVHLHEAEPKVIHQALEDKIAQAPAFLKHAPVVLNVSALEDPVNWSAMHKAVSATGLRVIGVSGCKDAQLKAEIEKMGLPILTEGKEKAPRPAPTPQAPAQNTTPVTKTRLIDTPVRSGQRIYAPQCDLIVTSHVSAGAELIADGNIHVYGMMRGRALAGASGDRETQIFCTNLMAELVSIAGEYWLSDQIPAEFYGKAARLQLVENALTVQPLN
T2 sequence 2: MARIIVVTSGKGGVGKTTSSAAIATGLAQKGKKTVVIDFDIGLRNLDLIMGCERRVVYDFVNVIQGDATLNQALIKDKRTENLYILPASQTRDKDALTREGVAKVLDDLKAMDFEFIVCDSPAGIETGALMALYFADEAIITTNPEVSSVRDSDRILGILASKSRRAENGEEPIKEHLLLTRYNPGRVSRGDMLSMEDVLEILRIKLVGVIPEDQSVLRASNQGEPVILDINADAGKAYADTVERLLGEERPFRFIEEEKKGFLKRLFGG
The experiment in a line: electron cryotomography of decorated liposomes.

Data set [3] deals with the molecule itself. In words: co-sedimentation.

B1: E. coli MinE, full length (natural protein)
chain: MALLDFFLSRKKNTANIAKERLQIIVAERRRSDAEPHYLPQLRKDILEVICKYVQIDPEMVTVQLEQKDGDISILELNVTLPEAEELK
As for B1, in data set [1], the binding result is reported as “binds”.

B2: E. coli FtsZ (natural protein)
chain: MFEPMELTNDAVIKVIGVGGGGGNAVEHMVRERIEGVEFFAVNTDAQALRKTAVGQTIQIGSGITKGLGAGANPEVGRNAADEDRDALRAALEGADMVFIAAGMGGGTGTGAAPVVAEVAKDLGILTVAVVTKPFNFEGKKRMAFAEQGITELSKHVDSLITIPNDKLLKVLGRGISLLDAFGAANDVLKGAVQGIAELITRPGLMNVDFADVRTVMSEMGYAMMGSGVASGEDRAEEAAEMAISSPLLEDIDLSGARGVLVNITAGFDLRLDEFETVGNTIRAFASDNATVVIGTSLDPDMNDELRVTVVATGIGMDKRPEITLVTNKQVQQPVMDRYQQHGMAPLTQEQKPVAKVVNDNAPQTAKEPDYLDIPAFLRKQAD
Regarding B2, the binding result in data set [2] and in data set [3] was “binds” throughout.
